Test results: article PMC5424802 (Intrinsically Disordered Proteins, 2013)

Target: T1, Stabilin CTD (C-terminal domain of stabilin-2, truncated intracellular region) (human, UniProt Q8WWQ8 2501-2551)
T1 sequence: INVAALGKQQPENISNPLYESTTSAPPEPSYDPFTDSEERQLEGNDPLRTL
Assay: ITC

dH: -1.75 kcal/mol
B1: Thymosin β4 (natural protein)
chain: MSDKPDMAEIEKFDKSKLKKTETQEKNPLPSKETIEQEKQAGES
modifications: not fully specified
